The values that follow come from publication PMC7894528, “Metal Ion Promiscuity and Structure of 2,3‐Dihydroxybenzoic Acid Decarboxylase of Aspergillus oryzae” (Chembiochem, 2020).

One may read the Km as the concentration of substrate that gives half-maximal velocity.

Substrate in this data set: O=C(O)c1cccc(O)c1O
In words: steady-state decarboxylation kinetics. The following applies: Mg2+-loaded enzyme; decarboxylation direction. It is filed as biochemical, Aspergillus oryzae.

B1: 2,3-DHBD_Ao (Aspergillus oryzae RIB40) (protein)
chain: MLGKIALEEAFALPRFEEKTRWWASLFSTDAETHVKEITDINKIRIEHADKHGVGYQILSYTAPGVQDIWDPVEAQALAVEINDYIAEQVRVNPDRFGAFATLSMHNPKEAADELRRCVEKYGFKGALVNDTQRAGPDGDDMIFYDNADWDIFWQTCTELDVPFYMHPRNPTGTIYEKLWADRKWLVGPPLSFAHGVSLHVLGMVTNGVFDRHPKLQIIMGHLGEHVPFDMWRINHWFEDRKKLLGLAETCKKTIRDYFAENIWITTSGHFSTTTLNFCMAEVGSDRILFSIDYPFETFSDACEWFDNAELNGTDRLKIGRENAKKLFKLDSYKDSSA
notes: recombinant, purified by size exclusion chromatography
Take B1: the Km came to 208 µM and the kcat amounted to 15 s–1.
